In patent US8778635B2, “Thermostable proteins and methods making and using thereof” (Becton, Dickinson and Company, priority 2006, dated 2014):

Assay: Circular dichroism melting temperature (Tm), CD signal at 222 nm versus temperature
Format: physicochemical
Parameters: key to + ΔTm / − ΔTm: Tm difference in °C from reference 3M-GGBP
Conditions: for increase of Tm over the reference protein (in words): among the thirteen modified GGBPs, reference 3M-GGBP; for + ΔTm: increase of Tm over reference protein 3M-GGBP; for + ΔTm / − ΔTm: CD, PBS; for Previously Tested, See - Table II: ΔTm: repeated from Table II, modified 3M-GGBP versus 3M-GGBP; for − ΔTm: decrease of Tm versus reference protein 3M-GGBP
Experimental: Circular Dichroism (CD) spectra were preformed on a JASCO J-810. Samples of purified fluorophore-labeled proteins were exhaustively dialyzed into phosphate buffered saline (PBS) (comprised of 137 mM NaCl, 10 mM phosphate and 2.7 mM KCl, pH 7.4). The loss of secondary structure of 3M-GGBP and W183C-GGBP was observed by recording the CD signal at 222 nm as a function of temperature. During the experiment, the temperature of the sample changed at a rate of ˜1° C./min between 20 and 80° C. The apparent melting temperature at the midpoint of the transition (Tm) was obtained by fitting the experimental data points (CD signal versus temperature) with a sigmoidal function.

B1: Modified protein 1: 3M-GGBP (SEQ ID NO:3) with substitution N39I (protein)
chain: ADTRIGVTIYKYDDNFMSVVRKAIEQDAKAAPDVQLLMIDSQNDQSKQNDQIDVLLAKGVKALAINLVDPAAAGTVIEKARGQNVPVVFFNKEPSRKALDSYDKAYYVGTDSKESGIIQGDLIAKHWAANQGWDLNKDGQIQFVLLKGCPGHPDAEARTTYVIKELNDKGIKTEQLQLDTAMWDTAQAKDKMDAWLSGPNANKIEVVIANNDRMAMGAVEALKAHNKSSIPVFGVDASPEALALVKSGALAGTVLNDANNQAKATFDLAKNLADGKGAADGTNWKIDNKVVRVPYVGVDKDNLAEFSKK
For B1, the “increase of Tm over the reference protein (in words)” value (“increase of Tm” below) was “greatest increase of Tm”, the “+ ΔTm” value was 1 and the “Previously Tested, See - Table II: ΔTm” value was “+1”.

B2: Modified protein 6: 3M-GGBP (SEQ ID NO:3) with substitutions Q175I, Q177E (protein)
chain: ADTRIGVTIYKYDDNFMSVVRKAIEQDAKAAPDVQLLMNDSQNDQSKQNDQIDVLLAKGVKALAINLVDPAAAGTVIEKARGQNVPVVFFNKEPSRKALDSYDKAYYVGTDSKESGIIQGDLIAKHWAANQGWDLNKDGQIQFVLLKGCPGHPDAEARTTYVIKELNDKGIKTEILELDTAMWDTAQAKDKMDAWLSGPNANKIEVVIANNDRMAMGAVEALKAHNKSSIPVFGVDASPEALALVKSGALAGTVLNDANNQAKATFDLAKNLADGKGAADGTNWKIDNKVVRVPYVGVDKDNLAEFSKK
In the case of B2, the “− ΔTm” value is reported as 0.3.

B3: Modified protein 3: 3M-GGBP (SEQ ID NO:3) with substitutions G82E, Q83K, N84D (protein)
chain: ADTRIGVTIYKYDDNFMSVVRKAIEQDAKAAPDVQLLMNDSQNDQSKQNDQIDVLLAKGVKALAINLVDPAAAGTVIEKAREKDVPVVFFNKEPSRKALDSYDKAYYVGTDSKESGIIQGDLIAKHWAANQGWDLNKDGQIQFVLLKGCPGHPDAEARTTYVIKELNDKGIKTEQLQLDTAMWDTAQAKDKMDAWLSGPNANKIEVVIANNDRMAMGAVEALKAHNKSSIPVFGVDASPEALALVKSGALAGTVLNDANNQAKATFDLAKNLADGKGAADGTNWKIDNKVVRVPYVGVDKDNLAEFSKK
With B3 the “increase of Tm” value was “greatest increase of Tm” and the “+ ΔTm” value was 1.5.

B4: Modified protein 10: 3M-GGBP (SEQ ID NO:3) with substitutions N259E, N260S (protein)
chain: ADTRIGVTIYKYDDNFMSVVRKAIEQDAKAAPDVQLLMNDSQNDQSKQNDQIDVLLAKGVKALAINLVDPAAAGTVIEKARGQNVPVVFFNKEPSRKALDSYDKAYYVGTDSKESGIIQGDLIAKHWAANQGWDLNKDGQIQFVLLKGCPGHPDAEARTTYVIKELNDKGIKTEQLQLDTAMWDTAQAKDKMDAWLSGPNANKIEVVIANNDRMAMGAVEALKAHNKSSIPVFGVDASPEALALVKSGALAGTVLNDAESQAKATFDLAKNLADGKGAADGTNWKIDNKVVRVPYVGVDKDNLAEFSKK
In the case of B4, the “increase of Tm” value is reported as “greatest increase of Tm” and the “+ ΔTm” value is reported as 3.6.

B5: Modified protein 9: 3M-GGBP (SEQ ID NO:3) with substitution N226K (protein)
chain: ADTRIGVTIYKYDDNFMSVVRKAIEQDAKAAPDVQLLMNDSQNDQSKQNDQIDVLLAKGVKALAINLVDPAAAGTVIEKARGQNVPVVFFNKEPSRKALDSYDKAYYVGTDSKESGIIQGDLIAKHWAANQGWDLNKDGQIQFVLLKGCPGHPDAEARTTYVIKELNDKGIKTEQLQLDTAMWDTAQAKDKMDAWLSGPNANKIEVVIANNDRMAMGAVEALKAHKKSSIPVFGVDASPEALALVKSGALAGTVLNDANNQAKATFDLAKNLADGKGAADGTNWKIDNKVVRVPYVGVDKDNLAEFSKK
For B5, the “+ ΔTm” value was 0.3.

B6: Modified protein 13: 3M-GGBP (SEQ ID NO:3) with substitution N302T (protein)
chain: ADTRIGVTIYKYDDNFMSVVRKAIEQDAKAAPDVQLLMNDSQNDQSKQNDQIDVLLAKGVKALAINLVDPAAAGTVIEKARGQNVPVVFFNKEPSRKALDSYDKAYYVGTDSKESGIIQGDLIAKHWAANQGWDLNKDGQIQFVLLKGCPGHPDAEARTTYVIKELNDKGIKTEQLQLDTAMWDTAQAKDKMDAWLSGPNANKIEVVIANNDRMAMGAVEALKAHNKSSIPVFGVDASPEALALVKSGALAGTVLNDANNQAKATFDLAKNLADGKGAADGTNWKIDNKVVRVPYVGVDKDTLAEFSKK
In the case of B6, the “− ΔTm” value is reported as 0.2.

B7: Modified protein 11: 3M-GGBP (SEQ ID NO:3) with substitutions K270Y, N271S (protein)
chain: ADTRIGVTIYKYDDNFMSVVRKAIEQDAKAAPDVQLLMNDSQNDQSKQNDQIDVLLAKGVKALAINLVDPAAAGTVIEKARGQNVPVVFFNKEPSRKALDSYDKAYYVGTDSKESGIIQGDLIAKHWAANQGWDLNKDGQIQFVLLKGCPGHPDAEARTTYVIKELNDKGIKTEQLQLDTAMWDTAQAKDKMDAWLSGPNANKIEVVIANNDRMAMGAVEALKAHNKSSIPVFGVDASPEALALVKSGALAGTVLNDANNQAKATFDLAYSLADGKGAADGTNWKIDNKVVRVPYVGVDKDNLAEFSKK
With B7 the “− ΔTm” value was 3.5 and the “Previously Tested, See - Table II: ΔTm” value was −3.5.

B8: Modified protein 8: 3M-GGBP (SEQ ID NO:3) with substitution N226G (protein)
chain: ADTRIGVTIYKYDDNFMSVVRKAIEQDAKAAPDVQLLMNDSQNDQSKQNDQIDVLLAKGVKALAINLVDPAAAGTVIEKARGQNVPVVFFNKEPSRKALDSYDKAYYVGTDSKESGIIQGDLIAKHWAANQGWDLNKDGQIQFVLLKGCPGHPDAEARTTYVIKELNDKGIKTEQLQLDTAMWDTAQAKDKMDAWLSGPNANKIEVVIANNDRMAMGAVEALKAHGKSSIPVFGVDASPEALALVKSGALAGTVLNDANNQAKATFDLAKNLADGKGAADGTNWKIDNKVVRVPYVGVDKDNLAEFSKK
In the case of B8, the “+ ΔTm” value is reported as 0.9.

B9: Modified protein 4: 3M-GGBP (SEQ ID NO:3) with substitution N130D (protein)
chain: ADTRIGVTIYKYDDNFMSVVRKAIEQDAKAAPDVQLLMNDSQNDQSKQNDQIDVLLAKGVKALAINLVDPAAAGTVIEKARGQNVPVVFFNKEPSRKALDSYDKAYYVGTDSKESGIIQGDLIAKHWAADQGWDLNKDGQIQFVLLKGCPGHPDAEARTTYVIKELNDKGIKTEQLQLDTAMWDTAQAKDKMDAWLSGPNANKIEVVIANNDRMAMGAVEALKAHNKSSIPVFGVDASPEALALVKSGALAGTVLNDANNQAKATFDLAKNLADGKGAADGTNWKIDNKVVRVPYVGVDKDNLAEFSKK
With B9 the “− ΔTm” value was 5.2 and the “Previously Tested, See - Table II: ΔTm” value was −5.2.

B10: Modified protein 7: 3M-GGBP (SEQ ID NO:3) with substitutions G198S, P199S, N200K (protein)
chain: ADTRIGVTIYKYDDNFMSVVRKAIEQDAKAAPDVQLLMNDSQNDQSKQNDQIDVLLAKGVKALAINLVDPAAAGTVIEKARGQNVPVVFFNKEPSRKALDSYDKAYYVGTDSKESGIIQGDLIAKHWAANQGWDLNKDGQIQFVLLKGCPGHPDAEARTTYVIKELNDKGIKTEQLQLDTAMWDTAQAKDKMDAWLSSSKANKIEVVIANNDRMAMGAVEALKAHNKSSIPVFGVDASPEALALVKSGALAGTVLNDANNQAKATFDLAKNLADGKGAADGTNWKIDNKVVRVPYVGVDKDNLAEFSKK
With B10 the “+ ΔTm” value was 0.5 and the “Previously Tested, See - Table II: ΔTm” value was “+0.5”.

B11: Modified protein 5: 3M-GGBP (SEQ ID NO:3) with substitutions Q175E, Q177H, L178M (protein)
chain: ADTRIGVTIYKYDDNFMSVVRKAIEQDAKAAPDVQLLMNDSQNDQSKQNDQIDVLLAKGVKALAINLVDPAAAGTVIEKARGQNVPVVFFNKEPSRKALDSYDKAYYVGTDSKESGIIQGDLIAKHWAANQGWDLNKDGQIQFVLLKGCPGHPDAEARTTYVIKELNDKGIKTEELHMDTAMWDTAQAKDKMDAWLSGPNANKIEVVIANNDRMAMGAVEALKAHNKSSIPVFGVDASPEALALVKSGALAGTVLNDANNQAKATFDLAKNLADGKGAADGTNWKIDNKVVRVPYVGVDKDNLAEFSKK
With B11 the “increase of Tm” value was “greatest increase of Tm” and the “+ ΔTm” value was 3.

B12: Modified protein 12: 3M-GGBP (SEQ ID NO:3) with substitutions N283D, W284L (protein)
chain: ADTRIGVTIYKYDDNFMSVVRKAIEQDAKAAPDVQLLMNDSQNDQSKQNDQIDVLLAKGVKALAINLVDPAAAGTVIEKARGQNVPVVFFNKEPSRKALDSYDKAYYVGTDSKESGIIQGDLIAKHWAANQGWDLNKDGQIQFVLLKGCPGHPDAEARTTYVIKELNDKGIKTEQLQLDTAMWDTAQAKDKMDAWLSGPNANKIEVVIANNDRMAMGAVEALKAHNKSSIPVFGVDASPEALALVKSGALAGTVLNDANNQAKATFDLAKNLADGKGAADGTDLKIDNKVVRVPYVGVDKDNLAEFSKK
In the case of B12, the “− ΔTm” value is reported as 3.7 and the “Previously Tested, See - Table II: ΔTm” value is reported as −3.7.
